Biological target: Atezolizumab
Test: microscale thermophoresis instrument, ligand-induced fluorescence change; f-F0 held at 10 nM, the concentration axis is that of atezolizumab

- EC50 (read off the curve): 20 nM
Substance: peptide f-F0 (FITC-labeled parental Fc-III peptide F0, disulfide bond replaced by a thioether bond)

— patent US20240024504A1, “SITE-SELECTIVE LYSINE ACETYLATION OF HUMAN IMMUNOGLOBULIN G AND IgG-RELATED PRODUCTS FOR IMMUNOTHERAPY” (The Chinese University of Hong Kong, priority 2022, published 2024)
